Consider one molecule from patent US20080152645A1 (ARMAGEN TECHNOLOGIES, published 2008).

This experiment concerns the target T1, Aβ^1-40 amyloid peptide (human, UniProt P05067 672-711).
T1 construct: domain: Aβ^1-40; Plated on 96-well plates in ELISA and IRMA; also called Aβ^1-40 peptide; Aβ^1-40 aggregates
Briefly: ELISA on plated Aβ^1-40, COS cell medium, detection with biotinylated 9E10 MAb. The text has this: FIG. 29. […] The mAβScFv binds to the amyloid peptide, and the 9E10 anti-c-myc MAb binds to the […] epitope fused to the carboxyl terminus of the protein (FIG. 9). The 9E10 MAb is biotinylated, which enables detection with a conjugate of streptavidin and peroxidase. Medium conditioned by COS cells that were transfected with pCD-mAβScFv produced a high signal in the assay, whereas medium from COS cells exposed only to Lipofectamine (LIPO) produced no signal.
The binding of the mAβScFv to the Aβ¹⁻⁴⁰ amyloid peptide was verified with a specific ELISA. The Aβ¹⁻⁴⁰ amyloid peptide was plated in 96-well plates, followed by the addition of the media conditioned by COS cells transfected with the pCD-mAβScFv plasmid and Lipofectamine-2000. The anti-A, ScFv contains a C-terminal 10-amino acid c-myc epitope, which is recognized by the 9E10 MAb (FIG. 29A). The 9E10 MAb is biotinylated, which enables quantitation of the […] binding to Aβ¹⁻⁴⁰ by a peroxidase detection system and A492 readings (FIG. 29A).
In general terms: An ELISA detects its analyte on a solid surface through an enzyme-linked reagent.

B1: mAβScFv, murine single chain Fv antibody against the Aβ peptide, secreted by COS cells transfected with pCD-mAβScFv (scFv)
scFv: QVQLQQSGAELVKPGATVKLSCKASGYSFNSHYIYWVKQRPGQGLEWIGEINPSNGAMNFNEKFKNKATLTVDKSSSTAYMQLSSLTSEDSAVYYCVRDPTSYWGQGTLVTVSAAKTTPKLEEGEFSEARVDIVMTQTPLSLPVSLGDQASISCRSSQSLVHSYGNTYLHWYLQKPGQSPKLLIYKVSNRFSGVPDRFSGSGSGTDFTLKISRVEAEDLGVYFCSQSTHVPYTFGGGTKLEIKRADAAAAGSEQKLISEEDL
notes: Tested as COS cell conditioned medium; No His tag in this construct; VL has Ile at position 2; also called anti-Aβ ScFv; anti-mAβScFv
As to B1, the binding result is on record as “binds”.
